# Key:
# Experiment in all cases: GST pull-down of 35S-labeled protein on glutathione-Sepharose beads
# [1] = molecular target: T1, glutathione S-transferase (GST) control (UniProt P08515 1-218 = GST)
# T1 construct: Control protein immobilized on glutathione-Sepharose beads
# Description: (§1) After 36 h, extracts are prepared and immunoprecipitated with a monoclonal antibody to the Flag-epitope. The immunoprecipitates (upper panel) and the corresponding cellular lysates (lower panel) are analyzed by SDS-PAGE and immunoblotted with a HRP-conjugated T7-antibody. IP, immunoprecipitates. (C) Mutations in the BH3 domain of Blk abrogate its ability to interact with Bcl-2 and Bcl-xL. 35S-labeled wild type Blk, mutant Blk-DG59 (M1) or mutant Blk-DG59-D60 (M2) (lane 1, input) are precipitated with GST (lane 2), GST-Bcl-2 (lane 3), or GST-Bcl-xL (lane 4) and then analyzed by SDS-PAGE and Coomassie staining to detect the GST fusion proteins (lower panel) and autoradiography to detect the interacting labeled proteins (upper panel). (D) Mutations in the BH3 domain of Blk abrogate its proapoptotic activity. MCF-7 cells are transfected with the indicated plasmids and then assayed for apoptosis as in FIG. 3A.
# (§2) Blk binds Bcl-2 and Bcl-xL. All the proapoptotic Bcl-2 family members can heterodimerize with Bcl-2 and Bcl-xL. To determine whether Blk can also bind to Bcl-2 or Bcl-xL, in vivo and in vitro binding studies are performed. Bcl-2 and Bcl-xL are constructed as GST fusion proteins inpGEX-4T-2 and pGEX-2T, respectively, by placing the coding sequence of Bcl-2 or Bcl-XL in frame C-terminal to the GST protein (Pharmacia). GST fusion proteins are expressed in E. coli and purified by affinity chromatography on a glutathione-coupled substrateGlutathione Sepharose 4B (Pharmacia). ³⁵S-labeled (Blk, Bik, Bax) proteins are expressed in vitro using a coupled transcription/translation system in rabbit reticulocyte lysate (TNT Kit; Promega). In vitro protein-protein interactions are carried out according to Boyd et. al. (supra). Briefly, labeled proteins are precleared by mixing with glutathione-coupled Sepharose beads, which are then removed by centrifugation. The supernatants are incubated with GST-Bcl-2, GST-Bcl-xL or GST immobilized on glutathione-coupled Sepharose beads for 2 h at 4° C. After extensive washing, proteins are recovered by boiling the beads in SDS-sample buffer and analyzed on 12% SDS-PAGE.
# (§3) ³⁵S-labeled Blk, Bik or Bax are precipitated with glutathione S-transferase (GST), GST-Bcl-2 or GST-Bcl-xL fusion proteins immobilized on glutathione-Sepharose beads (FIG. 5A).
# GST-Bcl-2 fusion protein = molecular target: T2, GST-Bcl-2 fusion protein (human, UniProt P08515 1-218 = GST; P10415 1-239)
# T2 construct: Expressed in E. coli and immobilized on Glutathione Sepharose 4B beads
# Description: as §1, §2, §3
# [2] = molecular target: T3, GST-Bcl-xL fusion protein (human, UniProt P08515 1-218 = GST; Q07817 1-233)
# T3 construct: Expressed in E. coli and immobilized on Glutathione Sepharose 4B beads
# Description: as §1, §2, §3
# T1 sequence (P08515 whole entry): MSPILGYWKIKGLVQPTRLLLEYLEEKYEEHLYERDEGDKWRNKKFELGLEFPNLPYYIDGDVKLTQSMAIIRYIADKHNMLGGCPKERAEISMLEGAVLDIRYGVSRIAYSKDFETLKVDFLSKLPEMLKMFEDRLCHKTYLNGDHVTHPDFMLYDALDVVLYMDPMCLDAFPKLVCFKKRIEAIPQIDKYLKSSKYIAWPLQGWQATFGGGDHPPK
# T2 sequence (P08515 1-218, tags or fused parts left off): as the sequence (P08515 whole entry) above
# T3 sequence (P08515 1-218, tags or fused parts left off): as the sequence (P08515 whole entry) above
Binder,binding result [1],binding result (GST-Bcl-2 fusion protein),binding result [2]
"murine Blk (Bik-like killer), wild type (other, 35S-labeled (in vitro translated in rabbit reticulocyte lysate) in the GST pull-down, Protein of 150 amino acids; Used 35S-labeled from in vitro transcription/translation in the pull-downs, and expressed from pRSC-LacZ in the apoptosis assays; also called 35S-labeled Blk; wild type Blk) MSEARLMARDVIKTVPHDQVPQPPVASETPSMKEPVRDVDLMECVEGRNQVALRLACIGDEMDLCLRSPRLVQLPGIAIHRLAVTYSRTGVRGIFRSLIRSLTNLRENIWSWRVLTPGAWVSPDQDPGQLFPMVLLVFLLLGGAWYLQLQ",no binding,–,–
"mutant Blk-DG59-D60 (Gly59 and Asp60 deleted) (other, 35S-labeled (in vitro translated) in the GST pull-down, Cloned in pFLAG CMV-2 and the pRSC vector; also called M2) MSEARLMARDVIKTVPHDQVPQPPVASETPSMKEPVRDVDLMECVEGRNQVALRLACIEMDLCLRSPRLVQLPGIAIHRLAVTYSRTGVRGIFRSLIRSLTNLRENIWSWRVLTPGAWVSPDQDPGQLFPMVLLVFLLLGGAWYLQLQ",–,no binding,no binding
"Bik (other, human, UniProt Q13323 1-160, looked up, 35S-labeled (in vitro translated), also called human Bik/Nbk; 35S-labeled Bik) MSEVRPLSRDILMETLLYEQLLEPPTMEVLGMTDSEEDLDPMEDFDSLECMEGSDALALRLACIGDEMDVSLRAPRLAQLSEVAMHSLGLAFIYDQTEDIRDVLRSFMDGFTTLKENIMRFWRSPNPGSWVSCEQVLLALLLLLALLLPLLSGGLHLLLK",no binding,–,–

# Source: US20030060416A1 (IDUN PHARMACEUTICALS, published 2003)
